The values that follow come from patent US20260258115A1 (MAPP BIOPHARMACEUTICAL, published 2026).

Assay [1] addresses T1, RSV postfusion F (postF), subtype A (respiratory syncytial virus subtype A, UniProt P03420 26-513).
T1 construct: also called Postfusion subtype A; F deltaFP
The assay is described as follows: BLI, IgG. Background: In BLI a coated tip is dipped into the sample, and binding shifts an interference pattern.

Assay [2] deals with T2, RSV prefusion F (preF), subtype B (respiratory syncytial virus subtype B).
T2 construct: also called Prefusion subtype B
Briefly: BLI, IgG.

The target in another assay is RSV F on RSV-A2 virus (Respiratory syncytial virus, RSV-A2, UniProt P03420 26-574). The assay is described as follows: cell-based or functional assay.
Assay [3] concerns the target RSV prefusion F (preF), DS-Cav1 (Respiratory syncytial virus, UniProt P03420 26-513). Briefly: BLI, IgG on anti-human IgG sensor, 100 nM antigen.
The target in assay [4] is RSV postfusion F (postF), F ΔFP (Respiratory syncytial virus, UniProt P03420 26-513). The assay is described as follows: BLI, IgG on anti-human IgG sensor, 100 nM antigen.
Assay [5] concerns the target RSV F on RSV subtype A virus (mKate-RSV A2) (respiratory syncytial virus A2, UniProt P03420 26-574). The assay is described as follows: cell-based or functional assay.
Assay [6] has as its target RSV F on RSV subtype B virus (mKate-RSV B 18537) (respiratory syncytial virus B 18537, UniProt P13843 26-574). Briefly: cell-based or functional assay.

B1: ADI-22768 (antibody, V domains shown)
VH: EVQLVESGGGLVQPGGSLRLSCAASGFTFSSYEMNWVRQAPGKGLEWVSYISSSGSTIYYADSVKGRFTISRDNAKNSLYLQMNSLRAEDTAVYYCAKSYIYDSSGYYLYYFDYWGQGTLVTVSS
VL: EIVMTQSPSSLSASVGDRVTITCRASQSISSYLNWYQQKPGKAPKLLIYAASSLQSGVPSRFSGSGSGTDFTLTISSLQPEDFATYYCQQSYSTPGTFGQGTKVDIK
notes: full-length IgG
For orientation: Kd means the concentration at which binding is half-saturated. Low values mean a tighter complex, high ones a looser complex. As to B1, the Kd in assay [1] came out at 3.41 nM; in assay [2], 4.57 nM.

B2: ADI-14359 (antibody, V domains shown)
VH: QVQLVQSGPALVKPTQTLTLTCTFSGFSLSTSGMCVSWIRQPPGKALEWLARIDWDDDKYYSTSLKTRLTISKDTSKNQVVLTMTNMDPVDTATYYCARATNYDSSGYYSLYFDYWGQGTLVTVSS
VL: not shown
notes: full-length IgG; also called Ab 27
On to B2, for which the Kd in assay [1] is 4.11 nM; in assay [2], 34.6 nM.

B3: ADI-41678 (antibody, V domains shown)
VH: EVQLVESGGGVVQPGGSLRLSCAASGFTFRTYGMHWVRQAPGKGLEWVAVISYDGSNKYYADSLMGRFTISRDNSKNTLYLQMNSLRAEDTAVYYCAKCFVPGSGGWYEYYFDYWGQGTLVTVSS
VL: QSVLTQPPSASGSPGQSVTISCTGTSSDVGGYNYVSWYQQHPGKAPKLMIYEVSKRPSGVPDRFSGSKSGNTASLTVSGLQAEDEADYYCSSYAGINNSVLFGGGTKLTVL
As to B3, the “Neutralization IC50 (RSV subtype A)” value in the assay with RSV F on RSV-A2 virus is above 25 µg/mL. Besides, the dissociation constant Kd in assay [3] is 2.92 nM; in assay [4], 1.17 nM.

B4: ADI-22779 (antibody, V domains shown)
VH: QVQLQQWGAGLLKPSETLSLTCAVYGGSFSDYSWTWIRQPPGKGLEWIGEISHTGITNYNPSLKSRVNISVDTSKNQFSLKLSSVTAADTAVYYCARADAYDSSGYYVYYFDYWGQGTLVTVSS
VL: DIQVTQSPPSLSASVGDRVTITCRASQTIASYLNWYHQKPGKAPELLIYAASSLQSGVPSRFSGSGSGTAFTLTISSLQPEDFATYYCQQSYSAPPSFGQGTKVEIK
notes: full-length IgG
In turn, B4 showed a Kd in assay [1] of 6.2 nM. In other words, the single-digit nanomolar range.

B5: ADI-14384 (antibody, V domains shown)
VH: QVQLQESGSGLVKPSQTLSLTCTVSGGSISSVGYSWSWIRQPPGKGLEWIGYIYHSGSPYYSPSLNSRVTISVDRSKNQFSLKLSSVTAADTAVYFCARVFFGGGGAFDIWGQGTTVTVSS
VL: QPGLTQPPSVSVAPGQTARITCGGNNIGSKSVQWYQQKPGQAPVLVMYYDSDRPSGIPDRFSGSSSGNTATLTITRVEAGDEADYSCQVWDSVNVHPVIFGGGTKLTVL
notes: full-length IgG; also called Ab 52
For B5, the figures for the Kd in assay [1] and in assay [2] were 0.469 nM and 4.78 nM, respectively.

B6: ADI-22775 (antibody, V domains shown)
VH: EVQLLESGGGVVQPGRSLRLSCAASGFTFSDYGMHWVRQAPGKGLEWVAVIWYDGSYKYYADSVKGRFTISRDNSKNTLFLQMNSLRAEDTAVYYCARESLQTHDAFDIWGQGTMVTVSS
VL: DIQMTQSPSSLSASVGDRVTITCRASQGISNSLAWYQQKPGKAPKLLLYAASRLESGVPSRFSGSGSGTDYTLTINSLQPEDFATYFCQQYYSTLTWTFGQGTKVDIK
notes: full-length IgG
For B6, binding in assay [1] was put at a Kd of 30 nM.

B7: ADI-14343 (antibody, V domains shown)
VH: QVQLVQSGAEVKKPGSSVKVSCKASGGTFSSYGVNWVRQAPGQGLEWMGRIIPMFGTSNYAQKFQGRVTITADGSTSTAYMELSSLRSEDTAVYYCARVGSPTTGAIMGVWGQGTTVTVSS
VL: DIVLTQTPLSLPVTPGEPASISCRSSQSLLQSNGFNYLDWYLQKPGQSPKLLIYMGSNRASGVPDRFSGSGSGTDFTLIISRVEAEDVGVYYCMQAIESPLTFGGGTKVDIK
notes: full-length IgG; also called Ab 11
Regarding B7, the Kd in assay [1] amounted to 2.94 nM; in assay [2], 38.1 nM.

B8: ADI-14362 (antibody, V domains shown)
VH: EVQLLESGGGLVQPGGSLRLSCAASGFTFSSYAMSWVRQAPGKGLEWVSGISGSGGSTYYADSVKGRFTISRDNSKNTLYLEMNSLRAEDTAVYYCAKRYYYGSGTYTFDIWGQGTMVTVSS
VL: not shown
notes: full-length IgG; also called Ab 30
B8: the Kd in assay [1] was determined as 15.7 nM; in assay [2], 119 nM.

B9: ADI-41703 (antibody, V domains shown)
VH: EVQLLESGSGLVKPLQTLSLTCAVSGGSISSGGYSWSWIRQPPGKGLEWIGYIYPSGSTYYNPSLKSRVTMSIDRSKNQFSLRLTSVTAADTAVYYCARGDGNDFWSADSSHAFAIWGQGTMVTVSS
VL: EIVMTQSPGTLSLSPGERATLSCRASQIVGNSYLAWYQQKPGQAPRLLIYGASSRATGIPERFSGSGSGTDFTLTISRLEPEDFAVYHCQQYGSSPWTFGQGTKVEIK
notes: also called Ab 895; Antibody Number 895
On to B9, for which the “Neutralization IC50 (RSV subtype A)” value in the assay with RSV F on RSV-A2 virus is above 25 µg/mL. The Kd in assay [3] stood at 4.2 nM; in assay [4], 0.843 nM.

B10: ADI-14389 (antibody, V domains shown)
VH: EVQLVESGGGLVKPGGSLRLSCAASGFTFINAWMAWVRQAPGKGPEWVGRIKSRADGGTTDYAAPVKGRFTISRDDSKNRLFLQMDSLKTDDTAVYFCTTGVRALRFYNGMDVWGQGTTVTVSS
VL: ETTLTQSPSSLSASIGDRVTITCRAGQSISSFLNWYQQKPGKAPKLLIYAASTLQSGVPSRFSGSKSGTDFTLTISSLQPEDFATYYCQQSYHTFTFGPGTKVEIK
notes: full-length IgG; also called Ab 56
B10: the Kd in assay [1] turned out to be 22.9 nM; in assay [2], 81.5 nM.

B11: ADI-14342 (antibody, V domains shown)
VH: QVTLKESGPVLVKPTETLTLTCTVSGFSLSNAKMGVSWIRQPPGKALEWLAYISSNDEKSYSTSLKSRLTISKDTSKSQVVLTMTNMDPVDTATYYCARILLYDSSGYYLWYFDLWGRGTLVTVSS
VL: DIQVTQSPSSLSASVGDRVTITCRASQRITSYLNWYQHKPGKAPKLLIFAASSLHSGVPSTFSGSGSGTDFTLTISSLQPEDFATYYCQQSYSTPWTFGQGTKVEIK
notes: full-length IgG; also called Ab 10
B11: the Kd amounted to 0.495 nM in assay [1] and 26.1 nM in assay [2]. Also, in assay [5], the “Neut IC50 subtype A” value stood at 1.75 µg/mL. Moreover, the “Neut IC50 subtype B” value in assay [6] stood at 8.27 µg/mL.

B12: ADI-41701 (antibody, V domains shown)
VH: QVQLVQSGAEVKKPGESLKISCQASGYSFTTYWIGWVRQTPGKGLEWMGIIYPGDSDTRYTPSFQGQVTISADKSISTAYLHWSSLKASDTAMYYCARLSGGYTFGFDYWGLGTLVTVSS
VL: NFMLTQPHSVSESPGKTVTISCTRSSGNIARYYVQWYQQRPGRAPTTVIYEDDQRPSGVPDRFSGSIDRSSNSASLTISGLKTEDEADYYCQSYDASNYVFATGTKVTVL
For the molecule B12, the “Neutralization IC50 (RSV subtype A)” value with RSV F on RSV-A2 virus was above 25 µg/mL. Moreover, the Kd in assay [3] worked out at 1.93 nM; in assay [4], 0.289 nM.

B13: ADI-14373 (antibody, V domains shown)
VH: QVQLQQWGAGLLKPSETLSLTCAVYGGSFSGSYWSWIRQPPGKGLEWIGEINHSGSTSYNPSLKSRVTISVDTSKKQFSLKLSSMTAADTAVYYCAGGFYYDSSGSYAPHPTFDYWGQGTLVTVSS
VL: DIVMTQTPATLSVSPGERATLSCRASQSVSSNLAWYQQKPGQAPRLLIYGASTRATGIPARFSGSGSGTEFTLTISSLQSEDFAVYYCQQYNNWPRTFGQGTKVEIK
notes: full-length IgG; also called Ab 41
For the molecule B13, the Kd in assay [1] turned out to be 1.06 nM; in assay [2] it was 15.9 nM.

B14: ADI-41677 (antibody, V domains shown)
VH: QVTLKESGPALVKPTQTLTLTCTFSGFSLSTSRMCVSWIRQPPGKALEWLARIDWDGDIYYSTSLRTRLTISKDTSKNQVVLTMTNMDPVDTATYYCARTSIYATGGYYLYYSDYWGQGTLVTVSS
VL: EIVMTQSPSSLSASVGDRVTITCRASQSIASYVNWFQQKPGKAPKLLIYAASNVHSGVPSRFSGSGSGTGFTLTISSLQPEDSAIYYCQQSYTTPWTFGQGTKLEIK
As for B14, the “Neutralization IC50 (RSV subtype A)” value with RSV F on RSV-A2 virus was above 25 µg/mL. Further, the Kd in assay [3] was 1.28 nM; in assay [4], 0.339 nM.

B15: ADI-14348 (antibody, V domains shown)
VH: QVQLVESGGGVAQPGGSLRLSCVASGFTFSNYGMHWVRQAPGKGLEWVAFIRSDGSKKYYGDSGKGRFTISRDNSKNTLYLQMNSLRAEDTALYYCARERAGATFAFDIWGQGTTVTVSS
VL: QSALTQPRSVSGSPGQSVTISCTGTSSDVGGYNFVSWYQHHPGKAPKLMIYDVTNRPSGVPDRFSGSKSGNTASLTISGLQADDEADYYCCSYAGGFTFYVFGTGTKVTVL
notes: full-length IgG; also called Ab 16
B15: the Kd was 5.66 nM in assay [1] and 110 nM in assay [2].

B16: ADI-14382 (antibody, V domains shown)
VH: EVQLLESGGGVVQPGRSLRLSCAASGFTFSAYGFHWVRQAPGKGLEWVAVIWFDGNNKYYADSMKGRFIISRDNSKNTLYLQMNSLRAEDTAVYYCARDPKETGEFDYWGQGTLVTVSS
VL: QSALTQPASVSGSPGQSITISCTGTISDVGRYNYVSWYQQHPGKAPKLMIYDVTNRPSGVSNRFSGSKSGNTASLTISGLQAEDEAVYYCCSYTISSTYVFGTGTKLTVL
notes: full-length IgG; also called Ab 50
In assay [1], B16 displayed a Kd of 0.846 nM.

B17: ADI-14386 (antibody, V domains shown)
VH: EVQLVESGGGLVQPGGSLRLSCAASRFTFSSYAMSWVRQAPGKGLEWVSGIGASGGTTYYADSVKGRFTISRDNSKNTVYLQMNSLRAEDTAVYYCARCEYYYGSGSAGYYFDYWGQGTLVTVSS
VL: SYELTQPPSVSVSPGQTASITCSGDKLGSKFAFWYQQKPGQSPVLVIFQDVKRPSGIPERFSGSNSGNTATLTISGTQAMDEADYYCQAWDSGTAVFGGGTKVTVL
notes: full-length IgG; also called Ab 54
Take B17: the Kd in assay [1] was 1.32 nM; in assay [2] it was 3.04 nM.

B18: ADI-14353 (antibody, V domains shown)
VH: QVQLVQSGAEVKKPGSSVKVSCKASGGTFSSYTISWVRQAPGQGLEWMGRIKPIIGIANNAQRFKGRVTITAEKSTGTAYMELSSLTSEDTAVYYCARGGYDYYGMDVWGQGTTVTVSS
VL: QSALTQPASVSGSPGQSITISCTGTSSDVGGYNYVSWHQQHPGKAPKLLIYDVSNRPSGVSNRFSGSKSGNTASLSISGLQAEDEADYYCSSFTSTSTPYVFGTGTQLTVL
notes: full-length IgG; also called Ab 21
Consider B18, for which the Kd stood at 0.26 nM in assay [1] and 12.6 nM in assay [2]. The “Neut IC50 subtype B” value in assay [6] was found to be 14.6 µg/mL.

B19: ADI-14381 (antibody, V domains shown)
VH: EVQLVESGGGLVQPGGSLRLSCAASGFTFSSYSMNWVRQAPGKGLEWVSYIGSSSSSVYYGDSAKGRFTISRDNAKNSLYLQMNSLRDEDTALYYCARVGWLQYCRGGSCYASFGMDVWGQGTTVTVSS
VL: DIQMTQSPSSLSASVGDRVTITCRASQGIRNDLGWYQQKPGIAPKLLIYAASSLQSGVPSRFSGSGSGTDFTLTISSLQPEDFATYYCLQDYDSPYTFGQGTKLEIK
notes: full-length IgG; also called Ab 49
As to B19, the Kd in assay [1] stood at 0.754 nM; in assay [2] it was 36.7 nM.
